Article PMC3968096, “Discovering Aptamers by Cell-SELEX against Human Soluble Growth Factors Ectopically Expressed on Yeast Cell Surface”

Biological target: VEGF165 (soluble) (human, UniProt P15692-4 27-191)
Test: F-EMSA; 1 mM Mg2+; 10 mM HEPES pH 7.9, 125 mM NaCl, 25 mM KCl, 1 mM MgCl2; F-EMSA at room temperature for 2 h, 5% PAGE at 4 C; flow cytometry in the same buffer
Conditions: protein: recombinant, chain copies: 2, label: 5' fluorescein (F-EMSA), 5' biotin (flow)

VEGF165 (soluble), sequence (P15692 other isoform, or with tags, fused parts or gaps): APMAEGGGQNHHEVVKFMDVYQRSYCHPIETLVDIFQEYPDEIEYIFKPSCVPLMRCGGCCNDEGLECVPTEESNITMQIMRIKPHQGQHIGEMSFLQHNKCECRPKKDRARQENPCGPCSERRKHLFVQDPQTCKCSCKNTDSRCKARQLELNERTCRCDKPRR

Binder: TCTAGCCCACTGCATAGAGGTAGCTACCGGTG (structured_DNA) [hVap1_SST]
- Kd (stem-loop plus shortened second stem-loop): 2.5 ± 0.2 nM

B1: hVap1_T1979 (structured_DNA)
DNA: TCTAGCCCACTGCATAGAGGTAGCCACGTATGTGGGTGTTACCCATTCGTAGCTACCGGTG
- Kd (predicted stem-loops): 1.7 ± 0.1 nM

Binder: TCTAGCCCACTGCATAGAGGTAGCCACGTATGTTCGTGGCTACCGGTG (structured_DNA) [hVap1_Stem]
- Kd (two predicted stem-loops): 5.6 ± 0.3 nM
